Consider three molecules from publication PMC2733336 (Insect biochemistry and molecular biology, 2009).

Data set [1] has as its target T1, cLac2 (endogenous cuticular laccase-2) (Manduca sexta, UniProt Q8I8Y0).
T1 sequence (Q8I8Y0 142-760): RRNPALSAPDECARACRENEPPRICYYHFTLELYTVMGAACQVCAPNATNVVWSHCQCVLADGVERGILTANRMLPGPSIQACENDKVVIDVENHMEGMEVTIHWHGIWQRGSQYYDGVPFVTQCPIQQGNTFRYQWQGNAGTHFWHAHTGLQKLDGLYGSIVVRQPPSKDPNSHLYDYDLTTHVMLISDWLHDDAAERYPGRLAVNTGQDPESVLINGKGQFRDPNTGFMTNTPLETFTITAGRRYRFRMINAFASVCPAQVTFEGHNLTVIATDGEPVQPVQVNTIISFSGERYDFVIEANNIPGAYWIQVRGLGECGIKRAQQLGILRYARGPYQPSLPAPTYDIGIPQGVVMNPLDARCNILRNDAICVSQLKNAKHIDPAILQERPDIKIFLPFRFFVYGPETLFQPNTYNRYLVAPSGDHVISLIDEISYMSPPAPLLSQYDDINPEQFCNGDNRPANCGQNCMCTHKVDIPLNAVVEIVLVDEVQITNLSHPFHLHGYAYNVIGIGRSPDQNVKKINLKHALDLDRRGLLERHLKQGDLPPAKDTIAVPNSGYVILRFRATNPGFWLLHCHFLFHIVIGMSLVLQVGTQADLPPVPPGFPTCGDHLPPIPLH
Put plainly: spectrophotometric, quinone formation at […] nm. In kind it is biochemical. As to conditions: substrate inhibition (uncompetitive) constant; 100 mM sodium citrate pH 5; air.

The target in data set [2] is T2, rLac2 (full-length recombinant laccase-2) (Manduca sexta, UniProt Q8I8Y0).
T2 sequence (Q8I8Y0 24-760): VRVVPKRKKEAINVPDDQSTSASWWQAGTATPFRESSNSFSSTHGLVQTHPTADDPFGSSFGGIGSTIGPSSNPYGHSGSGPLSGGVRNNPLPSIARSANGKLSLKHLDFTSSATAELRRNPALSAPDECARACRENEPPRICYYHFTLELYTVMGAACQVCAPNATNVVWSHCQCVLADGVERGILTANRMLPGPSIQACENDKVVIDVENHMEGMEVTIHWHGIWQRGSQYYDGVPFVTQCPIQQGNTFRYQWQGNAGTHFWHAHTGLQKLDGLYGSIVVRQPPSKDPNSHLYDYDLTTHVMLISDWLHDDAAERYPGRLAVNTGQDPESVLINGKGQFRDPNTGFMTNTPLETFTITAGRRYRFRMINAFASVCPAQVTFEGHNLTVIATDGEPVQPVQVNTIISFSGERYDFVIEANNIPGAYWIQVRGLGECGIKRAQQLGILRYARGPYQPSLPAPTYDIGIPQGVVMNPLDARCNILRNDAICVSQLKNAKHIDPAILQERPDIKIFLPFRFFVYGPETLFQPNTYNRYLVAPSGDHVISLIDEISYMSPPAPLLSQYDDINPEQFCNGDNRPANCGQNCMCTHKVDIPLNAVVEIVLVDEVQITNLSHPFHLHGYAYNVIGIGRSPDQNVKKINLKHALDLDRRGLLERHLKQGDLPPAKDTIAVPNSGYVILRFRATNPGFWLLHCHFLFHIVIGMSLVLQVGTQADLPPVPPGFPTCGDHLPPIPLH
Put plainly: spectrophotometric, quinone formation at […] nm. The data set is classed as biochemical. As to conditions: substrate inhibition (uncompetitive) constant; 100 mM sodium citrate pH 5; air.

Substrate in data set [3]: CC(=O)NCCc1ccc(O)c(O)c1
Nature of the data set: purified protein. In kind it is biochemical, Manduca sexta. As to conditions: 100 mM sodium citrate pH 5, air.

Substrate in data set [4]: CCn1c(=NN=c2sc3cc(S(=O)(=O)O)ccc3n2CC)sc2cc(S(=O)(=O)O)ccc21
Nature of the data set: purified protein. As to conditions: 100 mM sodium citrate pH 5, air, data not shown. In kind it is biochemical, Manduca sexta.

With `NCCC(=O)NCCc1ccc(O)c(O)c1` [NBAD], the “Ksi” value turned out to be 9.7 ± 1.3 mM in data set [1] and 6.7 ± 1.4 mM in data set [2].

B1: rLac2 (full-length recombinant laccase-2) (Manduca sexta) (protein)
chain: T2 sequence (Q8I8Y0 24-760)
With B1, in the data set “purified protein [3]”, the Km (commonly the concentration of substrate that gives half-maximal velocity) was found to be 460 ± 50 µM; the maximal velocity (Vmax) – broadly, the rate approached at saturating substrate – was determined as 3.1 ± 0.1 µM/min; the kcat (commonly the number of substrate molecules converted per active site and unit of time at saturation) amounted to 1.67 ± 0.05 s⁻¹; the kcat/Km (commonly the turnover number divided by the Michaelis constant) was determined as 3670 M⁻¹ s⁻¹.

B2: cLac2 (endogenous cuticular laccase-2) (Manduca sexta) (protein)
chain: T1 sequence (Q8I8Y0 142-760)
In the case of B2, in the data set “purified protein [3]”, the Michaelis-Menten constant (Km) was 630 ± 50 µM, the Vmax stood at 10.5 ± 0.25 µM/min, the kcat is 4.83 ± 0.117 s⁻¹ and the kcat/Km amounted to 7670 M⁻¹ s⁻¹. In “purified protein [4]”, the Km amounted to 1500 µM and the kcat stood at 7.67 s⁻¹.
